Earlier results in patent US20100183645A1, “ACTIVE OR PASSIVE IMMUNIZATION AGAINST PROAPOPTOTIC NEUROTROPHINS FOR THE TREATMENT AND/OR PREVENTION OF NEURODEGENERATIVE DISEASES” (INSTITUT PASTEUR, priority 2003, published 2010).
No end group written: not given here.

Biological target: T1, p75NTR (Homo sapiens, UniProt P08138)
T1 sequence (P08138 29-427): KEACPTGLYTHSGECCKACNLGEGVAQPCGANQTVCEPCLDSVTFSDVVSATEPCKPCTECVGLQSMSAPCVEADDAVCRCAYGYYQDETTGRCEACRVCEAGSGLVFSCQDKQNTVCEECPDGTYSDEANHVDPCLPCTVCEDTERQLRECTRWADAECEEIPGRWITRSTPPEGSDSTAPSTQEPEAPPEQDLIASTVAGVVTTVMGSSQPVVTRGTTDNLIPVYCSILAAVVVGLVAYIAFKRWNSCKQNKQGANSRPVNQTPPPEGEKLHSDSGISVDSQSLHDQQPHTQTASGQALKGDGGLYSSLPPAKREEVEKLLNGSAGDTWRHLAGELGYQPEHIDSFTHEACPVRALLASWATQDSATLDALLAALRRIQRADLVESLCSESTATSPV
Details: Beglova et al, 2000; Saragovi et al, 2000, 2002; cited from earlier work

For “short cyclic peptide derived from an exposed loop of mature NGF (residues C30-C35): short cyclic peptide from an exposed loop of mature NGF, involved in NGF-p75NTR interactions (DIKGKE; also: cyclic peptide, ring closure not given here; UniProt P01139 151-156, looked up, fragment)”, the “Blocking of neurotrophin binding to p75NTR” value is given as “specifically block”.
